Measurements reported in patent US10900903B2, “Protein structure analysis based on red-edge excitation shift (REES) spectroscopy” (UNIVERSITY OF BATH, priority 2016, dated 2021).
“And” between values parts separate entries of the source, which are not always exact repeats. Equal values may be shown once.

Legend:
[1] = REES of NEMO W6 Trp emission: native, denatured, crowded; type: physicochemical; settings: for R0: y-intercept of Eq 2 fit
Protocol: Typically the magnitude of the steady-state REES phenomenon is reported as the simple difference in CSM or ΔλEm^max. From FIG. 1, it is observed that a significant red shift in the emission spectra, with an increase in CSM of 17.7 nm and an increase in ΔλEm^max of 15 nm from λex 292-310 nm. Essentially the data are treated by the linear function: CSM=Rλex+CSM0 Eq 1.
Where R is the REES magnitude expressed as the change in CSM per nm of the excitation wavelength, λex.
The REES data in FIG. 2 can be best represented by a Gaussian probability distribution of the form:
Where A is the area, w is the full width at half-maximal (fwhm), m is the mid-point and R0 is the y-intercept and m=λREES^max, where λREES^max is the excitation wavelength that gives the largest change in the emission peak wavelength. The data in FIG. 2 are fit to Eq 2 and illustrate the low energy excitation at the red edge of the protein absorption spectrum. The fit of Eq 2 to the experimental data is excellent and captures the expected relationship described above.
In this case, the solvent relaxation will be very rapid and no REES effect observed, effectively because there is one discrete solvation state (fully solvated). NEMO is incubated in 6M guanidine to denature the protein and the corresponding change in the center of spectral mass (CSM) versus λex is shown in FIG. 3. The use of CSM is favoured instead of the magnitude of ΔλEm^max as this metric gives a more robust REES signal and the magnitude of may be highly error prone. However the results using ΔλEm^max are essentially the same. A decrease and red-shift in Trp emission is typically grossly correlated with denaturation of proteins. […] Note that this is not the REES effect but reflective of the solvent exposure of NEMO W6 on denaturation. […] Fitting to Eq 2 also gives a large decrease in the REES effect, A=0.37±0.4. The relative change in the REES effect is similar using either approach and this indicates strongly that a fitting approach using Eq 2 is robust.
Macromolecular crowding is a key feature of the intracellular milieu arising from the very high concentrations of other species in the cytosol. Crowding reduces the available solvent for other molecules in solution through the excluded volume effect, which effectively increase the concentration of, for example, protein and restricts the accessible conformational states through hard-core repulsions between the crowding agent and the protein. Macromolecular crowding can alter protein conformation, typically inducing folding and stabilization. Crowding therefore potentially provides a means to explore the contrasting physical effect of denaturation on the REES effect, where the protein is more folded/stabilized. A protein has been used as the crowding agent, Sbi (reported above), instead of a synthetic crowding agent since protein is much more consistent with the intracellular environment. […] Incubating NEMO with a high concentration of Sbi (20 mg/ml) gives a dramatic change to the both the absolute Trp emission and also the REES effect as shown in FIG. 3. […] Intriguingly, the REES effect is much larger in the crowded environment giving a relative increase in A of 2.24±0.51. […] This is consistent with the putative molecular model of NEMO activity that is based on allosterically regulated NEMO conformational change. Below, the potential mechanistic role of an increased number of available conformational states with respect to ligand interactions is described.
Full length human NEMO was expressed and purified essentially as described previously. Purified protein was dialysed extensively into a buffer comprising 50 mM Tris-Cl pH 8.0, 50 mM NaCl and 5 mM DTT. All measurements were made in this buffer unless otherwise stated. IKK-β and IκBα peptides were commercially synthesised by Genscript, having a purity of >98% and are of the sequence […] and […], respectively. […]

[2] = High-pressure REES measurements; type: physicochemical
Excerpt: The CSM value is rather larger than reported for the denaturation study above (FIGS. 3A and 3B) and this is due to a different spectral window used to calculate the CSM for the pressure studies. This was necessary due to the optical setup of the pressure cell. […] Fitting the REES data to Eq 4 gives the pressure dependence of A, shown in FIG. 4D as the change in the fraction of A across the pressure range. […] The pressure dependence data can be adequately fit to a simple, phenomenological model that implies a single transition between two states with changing hydrostatic pressure as used previously:
Where Rp=83.13 cm3 mol^−1 bar K^−1 when the pressure, p, is measured in bar, K0 is the equilibrium constant for the change in the relative population of the ith conformational state represented by the magnitude of A from Eq 4, extrapolated to 0 bar and ΔVA is the apparent difference in the volume associated with this equilibrium transition.
The difference in sign is simply attributable to relative change in direction of the specific to signal. What is important is that the magnitude of ΔV is much larger for the REES effect compared to W6 emission. Indeed, this magnitude of pressure dependence is more consistent with global metrics of NEMO conformational change previously measured using the pressure dependence of 8-anilino naphthalene sulfonate (ANS) emission. The REES signal may therefore be reflective of the broader equilibrium of NEMO conformational states at sites distal to W6. […] The key finding from the pressure data in the present context is that the REES effect itself is pressure-dependent with the magnitude of A increasing with pressure.
An ISS high-pressure cell (ISS, Champaign, UL, USA), fitted with a custom fiber optic mounting to the fluorimeter and connected to a circulating water bath for temperature regulation was used to record all high-pressure measurements.
Where fi is the measured fluorescence intensity and λem is the emission wavelength. The importance of using a consistent wavelength range when reporting CSM data is stressed, as the magnitude will be dependent on the wavelength range chosen.

[3] = pressure dependence of emission, ref [23]; cited from earlier work
[4] = previously found; cited from earlier work
[5] = QUBES values of native mAbs; type: physicochemical; settings: native mAb
Excerpt: First, the combined excitation and emission spectrum is monitored for each mAb giving a high information content fluorescence data set (FIG. 13A). […] A simpler exponential function is fitted, CSM=CSM0+Ae^RΔλ^Ex Eq 1.
Where CSM0 is the CSM value independent of the excitation wavelength, λEx, determined by the amplitude, A, of an exponential with a curvature determined by R. Fitting with this function instead of a Gaussian or other probability distribution dramatically improves the speed of data processing due to the lower dimensionality of the model but still retains the key aspects of the previous model, namely quantification of the magnitude of the fluorescence edge-shift. The plot of the resulting parameters yields a single three-dimensional data point (FIG. 13B, inset; the QUBES value), which is a direct quantification of the extremely complex spectral fingerprint shown in FIG. 13A.
All fluorescence measurements were performed using a Perkin Elmer LS50B Luminescence Spectrometer (Perkin Elmer, Waltham, Mass., USA) connected to a circulating water bath for temperature regulation (±1° C.). […] Tryptophan emission was monitored from 325 to 500 nm. […] The centre of spectral mass (CSM) was calculated using the following equation: […]
Where fi is the measured fluorescence intensity and Δem is the emission wavelength. […]

Row | Substance | R (fit to Eq 1), change in CSM per nm of λex ([1]; absolute value) | A (REES magnitude, fit to Eq 2) ([1]; relative to NEMO alone, native, denatured (6M guanidine), crowded (Sbi 20 mg/ml)) | R (fit to Eq 1), relative ([1]; relative to NEMO alone, native, denatured, crowded) | R0 ([1]; native, denatured, crowded) | R0 ([1]; native, denatured, crowded, listed as NEMO) | R0 ([1]; native, denatured, crowded, listed as native NEMO) | increase in CSM (red shift) ([1]; λex 292-310 nm) | increase in ΔλEm^max ([1]; λex 292-310 nm) | ΔλEm^max ([2]; 10° C., 1 bar, λex=295 nm) | increase in W6 CSM with increasing pressure ([2]; λex=292 nm) | increase in CSM from 1 to 2000 bar ([2]; λex=310 nm) | ΔV for W6 (Trp) emission [3] | random coil content [4] | α-helical content [4] | QUBES value (A, R), predicted rigidity/flexibility [5]
1 | NEMOnative: Full length human NF-κB essential modulator; W6 is its single intrinsic Trp residue | 0.96 | 1 ± 0.1 | 1 ± 0.13 | 363.2 ± 0.19 nm | 363.2±0.19 nm | 363.2±0.19 nm | 17.7 nm | 15 nm | 348 nm | 3.0 nm | 8.9 nm | 0.81 cm3 mol^−1 and ~1.6±0.4 cm3 mol^−1 | ~40% | ~50% | –
2 | Nivolumab: human therapeutic mAb | – | – | – | – | – | – | – | – | – | – | – | – | – | – | high A and small R value
3 | Pertuzumab: humanised therapeutic mAb | – | – | – | – | – | – | – | – | – | – | – | – | – | – | small A and high R value
